How the values were obtained:
[1] = molecular target: α6β1 integrin on human cells (human) (UniProt P23229); assay: cell-based or functional assay
[2] = molecular target: αVβ3 integrin on cells (human) (UniProt P06756); assay: cell-based or functional assay
Sequence of αVβ3 integrin on cells (human) (P06756 31-1048, chain 1 of 2): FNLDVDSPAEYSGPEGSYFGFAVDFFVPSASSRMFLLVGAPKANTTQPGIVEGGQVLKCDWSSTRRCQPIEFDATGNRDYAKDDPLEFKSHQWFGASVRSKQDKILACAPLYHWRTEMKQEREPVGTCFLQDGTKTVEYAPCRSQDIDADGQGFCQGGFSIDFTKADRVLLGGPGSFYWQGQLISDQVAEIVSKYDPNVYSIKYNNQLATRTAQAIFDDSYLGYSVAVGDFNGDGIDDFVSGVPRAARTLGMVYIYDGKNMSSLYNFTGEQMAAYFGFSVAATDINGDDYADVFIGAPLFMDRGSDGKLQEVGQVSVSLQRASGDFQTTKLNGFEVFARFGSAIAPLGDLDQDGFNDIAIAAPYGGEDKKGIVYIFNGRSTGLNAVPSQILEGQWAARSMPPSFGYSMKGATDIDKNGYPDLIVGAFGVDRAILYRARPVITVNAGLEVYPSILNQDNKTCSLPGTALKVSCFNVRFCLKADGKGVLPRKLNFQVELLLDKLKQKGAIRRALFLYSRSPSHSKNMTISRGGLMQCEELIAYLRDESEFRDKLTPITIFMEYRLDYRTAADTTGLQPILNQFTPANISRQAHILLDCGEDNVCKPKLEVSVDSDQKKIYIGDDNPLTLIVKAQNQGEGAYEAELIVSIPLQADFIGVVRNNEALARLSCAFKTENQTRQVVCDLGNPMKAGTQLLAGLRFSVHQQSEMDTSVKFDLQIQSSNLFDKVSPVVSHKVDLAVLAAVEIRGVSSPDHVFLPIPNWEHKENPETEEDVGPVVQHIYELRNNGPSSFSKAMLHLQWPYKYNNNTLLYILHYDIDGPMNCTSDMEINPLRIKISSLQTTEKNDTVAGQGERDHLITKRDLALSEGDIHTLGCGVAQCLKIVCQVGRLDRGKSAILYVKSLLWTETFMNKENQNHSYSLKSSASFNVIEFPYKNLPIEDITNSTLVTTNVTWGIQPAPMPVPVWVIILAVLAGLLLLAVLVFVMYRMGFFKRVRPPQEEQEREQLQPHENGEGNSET
Sequence of αVβ3 integrin on cells (human) (P05106 27-788, chain 2 of 2, further chain): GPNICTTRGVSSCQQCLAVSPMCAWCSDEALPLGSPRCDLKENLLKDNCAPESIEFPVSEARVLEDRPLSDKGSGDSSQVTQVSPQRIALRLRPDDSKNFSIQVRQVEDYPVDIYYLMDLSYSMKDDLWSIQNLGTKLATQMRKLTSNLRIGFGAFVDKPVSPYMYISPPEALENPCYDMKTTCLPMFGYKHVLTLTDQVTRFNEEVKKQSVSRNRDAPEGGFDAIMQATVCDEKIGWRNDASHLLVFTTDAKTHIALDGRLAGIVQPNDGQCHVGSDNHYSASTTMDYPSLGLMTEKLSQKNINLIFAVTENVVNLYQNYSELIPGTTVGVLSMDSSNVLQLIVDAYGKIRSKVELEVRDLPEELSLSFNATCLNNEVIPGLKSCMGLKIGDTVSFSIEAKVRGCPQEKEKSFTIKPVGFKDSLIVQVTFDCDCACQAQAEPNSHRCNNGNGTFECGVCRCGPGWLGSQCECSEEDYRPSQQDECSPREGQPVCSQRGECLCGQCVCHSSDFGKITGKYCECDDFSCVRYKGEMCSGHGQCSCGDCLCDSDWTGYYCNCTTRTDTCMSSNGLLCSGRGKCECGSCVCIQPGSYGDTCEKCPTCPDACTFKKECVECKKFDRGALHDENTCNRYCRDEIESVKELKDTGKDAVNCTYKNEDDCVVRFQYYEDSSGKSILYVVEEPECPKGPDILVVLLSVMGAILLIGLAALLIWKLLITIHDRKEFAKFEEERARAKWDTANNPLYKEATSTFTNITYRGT

Sequence of α6β1 integrin on human cells (human) (P23229 24-1130, chain 1 of 2): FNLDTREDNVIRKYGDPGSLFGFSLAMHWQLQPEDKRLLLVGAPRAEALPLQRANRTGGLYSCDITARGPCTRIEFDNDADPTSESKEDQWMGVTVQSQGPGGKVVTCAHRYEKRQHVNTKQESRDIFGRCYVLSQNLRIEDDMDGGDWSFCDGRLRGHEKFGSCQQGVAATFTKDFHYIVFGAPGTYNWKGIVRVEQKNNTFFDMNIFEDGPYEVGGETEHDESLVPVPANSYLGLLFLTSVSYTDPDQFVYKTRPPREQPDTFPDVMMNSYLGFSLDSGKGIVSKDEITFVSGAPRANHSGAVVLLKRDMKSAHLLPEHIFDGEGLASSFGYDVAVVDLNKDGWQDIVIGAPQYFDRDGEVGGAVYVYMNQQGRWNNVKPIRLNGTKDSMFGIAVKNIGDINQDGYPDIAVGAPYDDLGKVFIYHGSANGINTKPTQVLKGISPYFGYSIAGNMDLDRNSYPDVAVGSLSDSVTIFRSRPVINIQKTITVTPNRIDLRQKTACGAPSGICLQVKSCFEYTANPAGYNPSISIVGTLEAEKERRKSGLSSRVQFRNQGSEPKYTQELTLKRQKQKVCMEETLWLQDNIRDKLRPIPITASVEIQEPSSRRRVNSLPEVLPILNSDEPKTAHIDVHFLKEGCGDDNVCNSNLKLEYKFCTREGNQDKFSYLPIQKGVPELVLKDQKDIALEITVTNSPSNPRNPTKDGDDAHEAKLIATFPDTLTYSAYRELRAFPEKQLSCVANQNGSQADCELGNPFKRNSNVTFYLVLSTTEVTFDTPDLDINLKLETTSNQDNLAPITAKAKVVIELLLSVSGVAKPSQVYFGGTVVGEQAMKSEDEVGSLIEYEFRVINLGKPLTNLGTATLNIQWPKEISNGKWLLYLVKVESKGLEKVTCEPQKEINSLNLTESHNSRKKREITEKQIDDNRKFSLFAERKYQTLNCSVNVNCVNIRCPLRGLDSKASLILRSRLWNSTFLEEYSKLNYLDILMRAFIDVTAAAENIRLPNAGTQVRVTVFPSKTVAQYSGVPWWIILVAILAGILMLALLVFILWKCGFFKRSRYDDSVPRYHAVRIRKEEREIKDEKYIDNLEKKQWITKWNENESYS
Sequence of α6β1 integrin on human cells (human) (P05556 21-798, chain 2 of 2, further chain): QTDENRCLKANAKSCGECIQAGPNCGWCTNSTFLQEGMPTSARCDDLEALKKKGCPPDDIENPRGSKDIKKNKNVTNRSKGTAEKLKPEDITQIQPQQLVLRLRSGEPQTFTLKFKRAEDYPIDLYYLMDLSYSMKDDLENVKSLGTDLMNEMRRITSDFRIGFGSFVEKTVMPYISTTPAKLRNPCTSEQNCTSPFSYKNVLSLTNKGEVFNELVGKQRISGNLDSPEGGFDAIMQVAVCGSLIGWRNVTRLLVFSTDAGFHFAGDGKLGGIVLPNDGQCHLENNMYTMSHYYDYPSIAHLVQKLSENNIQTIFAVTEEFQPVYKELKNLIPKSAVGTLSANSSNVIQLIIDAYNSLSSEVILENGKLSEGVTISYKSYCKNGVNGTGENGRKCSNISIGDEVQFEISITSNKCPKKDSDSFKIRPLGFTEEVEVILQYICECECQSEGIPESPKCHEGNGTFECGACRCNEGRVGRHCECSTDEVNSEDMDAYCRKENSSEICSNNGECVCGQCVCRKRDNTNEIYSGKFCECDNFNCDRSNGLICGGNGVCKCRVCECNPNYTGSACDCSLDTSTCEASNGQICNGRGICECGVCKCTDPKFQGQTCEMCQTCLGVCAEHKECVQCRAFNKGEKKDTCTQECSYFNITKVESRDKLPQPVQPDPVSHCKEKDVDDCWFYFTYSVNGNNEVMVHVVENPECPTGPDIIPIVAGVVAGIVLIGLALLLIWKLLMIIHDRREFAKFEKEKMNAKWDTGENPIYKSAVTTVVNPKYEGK

Substance	1064SK fibroblast adhesion to laminin (A620), with anti-α6 antibody (20 µg/ml) [1] [A620]	1064SK fibroblast adhesion to laminin (A620), without anti-α6 antibody [1] [A620]	inhibition of 1064SK fibroblast adhesion to laminin by anti-α6 antibody [1] [%]	inhibition of 1064SK fibroblast adhesion by anti-α6 antibody (20 µg/ml) [1] [%]	relative binding capacity of HUVE cells on wild-type Cyr61 (5 µg/ml) after pre-incubation with 40 µg/ml anti-αvβ3 antibody (LM609); no pre-incubation = 100 [2] [%]	relative binding capacity of HUVE cells on wild-type Cyr61 (5 µg/ml) after pre-incubation with 1 mM RGD peptide; no pre-incubation = 100 [2] [%]	relative binding capacity of HUVE cells on wild-type Cyr61 (5 µg/ml) after pre-incubation with 2.5 mM EDTA; no pre-incubation = 100 [2] [%]
laminin (ligand)	0.48	0.62	22				
murine Cyr61 (from UniProt P18406 25-379) (ligand)				78	42	50	22
